Results as given in patent US20160195541A1.
Several values for one entry are separate records, joined by “and”; a condition that tells them apart may be missing. Equal values may be shown once.

What was measured:
[1] = target: membrane-bound human FcγRIIB on Raji cells (human) (UniProt P31994); test: FACS on Raji cells (FACS021), constant aggregated IgG; no competitor (Ref. Std. series)
[2] = target: membrane-bound human FcγRIIB on Raji cells (human) (UniProt P31994); test: FACS: 0.1E6 Raji cells (FcγRIIB) with 2.5 µg aggregated Beriglobin at the stated pH; 1/200 anti-human IgG(H+L)-PE; secondary antibody alone in this panel 173; pH 6.7
[3] = target: membrane-bound human FcγRIIB on Raji cells (human) (UniProt P31994); test: FACS on Raji cells (FACS007), constant aggregated IgG; competitor SM101 0.25 µg/µL
[4] = target: membrane-bound human FcγRIIB on Raji cells (human) (UniProt P31994); test: FACS on Raji cells (FACS021), constant aggregated IgG; competitor SM101 Ref. Std. 0.0078 µg/µL
[5] = target: membrane-bound human FcγRIIB on Raji cells (human) (UniProt P31994); test: FACS on Raji cells, aggregated Beriglobin at 2.5 (µg/µL)
[6] = target: membrane-bound human FcγRIIB on Raji cells (human) (UniProt P31994); test: FACS on Raji cells (FACS021), constant aggregated IgG; competitor SM101 IMP 0.25 µg/µL
[7] = target: membrane-bound human FcγRIIB on Raji cells (human) (UniProt P31994); test: FACS on Raji cells (FACS021), constant aggregated IgG; competitor SM101 Ref. Std. 0.0156 µg/µL
[8] = target: membrane-bound human FcγRIIB on Raji cells (human) (UniProt P31994); test: FACS: 0.1E6 Raji cells (FcγRIIB) with 2.5 µg aggregated Beriglobin at the stated pH; 1/200 anti-human IgG(H+L)-PE; drawn table, secondary antibody control not subtracted; pH 6.5
[9] = target: membrane-bound human FcγRIIB on Raji cells (human) (UniProt P31994); test: FACS: 0.1E6 Raji cells (FcγRIIB) with 2.5 µg aggregated Beriglobin at the stated pH; 1/200 anti-human IgG(H+L)-PE; secondary antibody alone in this panel 173; pH 6.5
[10] = target: membrane-bound human FcγRIIB on Raji cells (human) (UniProt P31994); test: FACS: 0.1E6 Raji cells (FcγRIIB) with 2.5 µg aggregated Beriglobin at the stated pH; 1/200 anti-human IgG(H+L)-PE; drawn table, secondary antibody control not subtracted; pH 7.2
[11] = target: membrane-bound human FcγRIIB on Raji cells (human) (UniProt P31994); test: FACS: 0.1E6 Raji cells (FcγRIIB) with 2.5 µg aggregated Beriglobin at the stated pH; 1/200 anti-human IgG(H+L)-PE; secondary antibody alone in this panel 173; pH 7.2
[12] = target: membrane-bound human FcγRIIB on Raji cells (human) (UniProt P31994); test: FACS on Raji cells (FACS021), constant aggregated IgG; competitor SM101 Ref. Std. 0.125 µg/µL
[13] = target: membrane-bound human FcγRIIB on Raji cells (human) (UniProt P31994); test: FACS on viable Raji cells (FcγRIIB) with aggregated Beriglobin and no SM101; detected with anti-human IgG(H+L)-PE secondary antibody
[14] = target: membrane-bound human FcγRIIB on Raji cells (human) (UniProt P31994); test: FACS on Raji cells (FcγRIIB) with constant aggregated Beriglobin and no CSA; detected with anti-human IgG(H+L)-PE; secondary antibody alone (SM101_sek AK.fcs) has median 137

Sequence of UniProt P31994 (P31994 43-310): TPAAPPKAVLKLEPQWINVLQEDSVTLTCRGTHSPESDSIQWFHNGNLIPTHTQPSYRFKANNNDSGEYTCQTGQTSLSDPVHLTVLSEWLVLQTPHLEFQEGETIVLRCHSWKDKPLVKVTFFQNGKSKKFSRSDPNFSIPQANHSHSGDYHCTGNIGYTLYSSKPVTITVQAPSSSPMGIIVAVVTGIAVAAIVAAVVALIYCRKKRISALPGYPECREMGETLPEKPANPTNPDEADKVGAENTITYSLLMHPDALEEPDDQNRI

aggregated human IgG (aggregated Beriglobin, aggregated fraction isolated by size exclusion chromatography) (antibody)
Median Signal [1]: 6460 | Median MFI at pH 6.7 (left panel) [2]: 578 | Median Signal [3]: 197 | Median Signal [4]: 5230 | Median MFI [5]: 1350 and 1500 and 1000 | Median Signal [6]: 281 | Median Signal [7]: 2330 | Median MFI at pH 6.5 [8]: 703 | Median MFI at pH 6.5 (left panel) [9]: 703 | Median MFI at pH 7.2 [10]: 561 | Median MFI at pH 7.2 (left panel) [11]: 561 | Median Signal [12]: 362 | percent of gated viable cells in the upper right quadrant of the dot plot (PE-A above about 10^3) [13]: 84.7 | Median PE-A fluorescence, 0 µg/µL CSA [14]: 3480
